According to patent US20240327505A1 (published 2024):
Residue numbers refer to the chain shown, from its start.

Tests used:
[1] = biological target: T1, SARS-CoV-2 spike S2 protein (SARS-CoV-2, UniProt P0DTC2 686-1213); assay: BLI, as in Example 4
T1 construct: domain: S2

[2] = biological target: SARS-CoV-2 spike protein on fully infectious (replication-competent) SARS-CoV-2 virus (SARS-CoV-2, UniProt P0DTC2 14-1273); assay: cell-based or functional assay
[3] = biological target: SARS-CoV-1 spike protein on pseudovirus (SARS-CoV-1, UniProt P59594 14-1255); assay: cell-based or functional assay
[4] = biological target: SARS-CoV-2 Wuhan-1 full-length Spike protein on pseudovirus (SARS-CoV-2, UniProt P0DTC2 14-1273); assay: cell-based or functional assay
[5] = biological target: SARS-CoV-2 S2 protein (SARS-CoV-2, UniProt P0DTC2 686-1213)
[6] = biological target: SARS-CoV-2 Nucleocapsid (N) protein (SARS-CoV-2, UniProt P0DTC9 1-419)
[7] = biological target: T2, SARS-CoV-2 Spike (S) trimer (SARS-CoV-2, UniProt P0DTC2 16-1213)
[8] = biological target: T2, SARS-CoV-2 Spike (S) trimer; assay: ELISA, S trimer coated, antibody at 1:50 dilution
[9] = biological target: SARS-CoV-2 Spike (S) trimer (SARS-CoV-2, UniProt P0DTC2 16-1213); assay: ELISA, S trimer coated, antibody at 1:50 dilution; remark: listed apart in the source
[10] = biological target: SARS-CoV-2 spike S2 protein (SARS-CoV-2, UniProt P0DTC2 686-1213)
[11] = biological target: SARS-CoV-2 spike S2 protein (SARS-CoV-2, UniProt P0DTC2 686-1213); remark: listed apart in the source
[12] = biological target: SARS-CoV-2 Envelope (E) protein (SARS-CoV-2, UniProt P0DTC4 1-75); assay: ELISA, Envelope
[13] = biological target: SARS-CoV-2 Spike (S) trimer (SARS-CoV-2, UniProt P0DTC2 16-1213); assay: ELISA on coated S trimer, 1:50
[14] = biological target: SARS-CoV-2 Nucleocapsid (N) protein (SARS-CoV-2, UniProt P0DTC9 1-419); remark: listed apart in the source

B1: AB-009620 (antibody, V domains shown)
VH: QITLKESGPTLVKPTQTLTLTCTFSGFSLSTSGVGVGWIRQPPGKALEWLALIYWDDDKRYSPSLKSRLTITKDTSKNQVVLTMTNMDPVDTATYYCAHHEVATVFDYWGQGTLVTVSS
VL: QSALTQPASVSGSPGQSITISCTGTSSDVGAYNYVSWYQQHPGKAPKLMIYEVSNRPSGVSNRFSGSKSGNTASLTISGLQAEDEADYYCSSYTSSSTVFGGGTKLTVL
binding result [1]: no binding | Neutralization (Infectious virus; (µg/mL)) [2]: 13.3 µg/mL | Pseudovirus Neturalization [3]: > 50 µg/mL | Pseudovirus Neturalization [4]: 1.04 µg/mL

B2: AB-009734 (antibody, V domains shown)
VH: QVHLVQSGAEVKTPGASVRVSCKASGYTFTSHYMHWVRQAPGQGLEWMGLINPSGSGTAYPQHFQGRVTMTRDTSTTTDYMDLSSLRSEDTAMYFCARMERSGAFDLWGQGTMVTVSS
VL: EIVLTQSPGTLSLSPGERATLSCRASQTISSRYLAWYYQKPGQAPRLLIQGSSIRATGIPDRFSGSGSGTDFTLTISRLEPEDFAVYYCQHYGSSPPMYTFGQGTKLEIK
Kd [5]: 12.4 nM | koff [5]: 0.000103 s⁻¹ | kon [5]: 8280 M⁻¹ s⁻¹ | Kd [6]: 22.2 nM | koff [6]: 0.000979 s⁻¹ | kon [6]: 44000 M⁻¹ s⁻¹

B3: AB-010020 (antibody, V domains shown)
VH: QMQLVQSGPEVKKPGTSVKVSCKASGFTFTSSAVQWVRQARGQRLEWIGWIVVGSGNTNYAQKFQERVTITRDMSTSTAYMELSSLRSEDTAVYYCAAPACSSTSCYDGFDIWGQGTMVTVSS
VL: not shown
EC50 [7]: 0.15 nM

B4: AB-010021 (antibody, V domains shown)
VH: B3 VH with P99V, A100Y, S103G, T104G, Y107L, G109A
VL: not shown
EC50 [7]: 0.23 nM

B5: AB-009271 (antibody, V domains shown)
VH: EVQLVESGGGLIQPGGSLRLSCAASGFIVSSNYMSWVRQAPGKGLEWVSVIYSGGSTYYADSVKGRFTISRDNSKNTLYLQMNSLRAEDTAVYYCARDYGDFYFDYWGQGTLVTVSS
VL: EIVMTQSPATLSVSPGERATLSCRASQSVSSNLAWYQQKPGQAPRLLIYGASTRATGIPARFSGSGSGTEFTLTISSLQSEDFAVYYCQQYYNWPRTFGQGTKVEIK
Optical Density (OD; 450 nm) [8]: 2.94 OD 450 nm

B6: AB-009613 (antibody, V domains shown)
VH: B5 VH with I28T
VL: not shown
Optical Density (OD; 450 nm) [8]: 2.47 OD 450 nm

B7: AB-009610 (antibody, V domains shown)
VH: QVQLVQSGAEVKKPGSSVKVSCKASGGTFSNYAISWVRQAPGQGLEWMGRIIPILGIANYAQKFQGRVTITADKSTSTAYMELSSLRSEDTAVYYCATTPYYYDSSGYYLDYWGQGTLVTVSS
VL: not shown
Optical Density (OD; 450 nm) [8]: 2.02 OD 450 nm

B8: AB-009629 (antibody, V domains shown)
VH: QVQLQQWGAGLLKPSETLSLTCAVYGGSFSGYYWSWIRQPPGKGLEWIGEINHSGSTNYNPSLKSRVTISVDTSKNQFSLKLSSVTAADTAVYFCARGTGIAVAGVLVNFYYCYYMDVWGKGTTVTVSS
VL: SSELTQDPAVSVALGQTVRITCQGDSLRSYYASWYQQKPGQAPVLVIYGKNNRPSGIPDRFSGSSSGNTASLTITGAQAEDEADYYCNSRDSSGNHLVFGGGTKLTVL
Optical Density (OD; 450 nm) [9]: 0.114 OD 450 nm

B9: AB-009358 (antibody, V domains shown)
VH: QVHLVQSGAEVKKPGASVKISCKASGYTFTSYYVHWVRQAPGQGLEWMGIIKPSGAGTIYAQKFQGRVTMTRDTSTSTVYMELSSLISEDTAVYYCARGGGVTDRDYWGQGTLVTVSS
VL: QSALTQEASVSATVGQKVTLSCTGNTNNIGGYAVGWHQQISHGAPKTVMFGNSLPSGIPDRFSGSKSGTTASLIISGLQPEDEADYYCSTWDSSLGAVLFGGGTKLTVL
Kd [10]: 478 nM | koff [10]: 0.00176 s⁻¹ | kon [10]: 3690 M⁻¹ s⁻¹

B10: AB-009627 (antibody, V domains shown)
VH: QVQLQQWGAGLLKPSETLSLTCAVYGGSFSGYYWSWIRQPPGKGLEWIGEINHSGSTNYNPSLKSRVTISVDTSKNQFSLKLSSVTAADTAVFYCARGGYSSSWYGEKYWFDPWGQGTLVTVSS
VL: QSALTQPRSVSGSPGQSVTISCTGTSSDVGGYNYVSWYQQHPGKAPKLMIYDVSKRPSGVPDRFSGSKSGNTASLTISGLQAEDEADYYCCSYAGSPYVFGTGTKVTVL
Kd [5]: 0.246 nM | koff [5]: 2.85e-07 s⁻¹ | kon [5]: 1160 M⁻¹ s⁻¹

B11: AB-009325 (antibody, V domains shown)
VH: QVQLVESGGGVVQPGRSLRLSCAASGFTFNNYGMHWVRQAPGKGLEWVALISYEGSLKYYGDSVRGRFTVSRDNSRNTLYLQMNSLRVDDTAVYYCAKAGGIFAIHYYGMNVWGQGTTVTVSS
VL: QSVLTQPPSVSAAPGQKVTISCSGSSSNIGKNYVSWYRQFPGTAPKLLIYDNNKRPSGIPDRFSGSKSDTSATLGITGLQTGDEADYYCVTWDSSLSAGVFGGGTKLTVL
Kd [11]: 0.0467 nM | koff [11]: 2.77e-07 s⁻¹ | kon [11]: 5930 M⁻¹ s⁻¹ | OD 450 nm [12]: 0.32 OD | OD 450 nm [13]: 1.39 OD

B12: AB-009190 (antibody, V domains shown)
VH: QVQLVESGGGVVQPGRSLRLSCAASGFTFSSYAMHWVRQAPGKGLEWVAVISYDGSNKYYADSVKGRFTISRDNSKNTLYLQMNSLRAEDTAVYYCARLNGDAYYYYGMDVWGQGTTVTVSS
VL: not shown
Kd [14]: 54.1 nM | koff [14]: 0.000947 s⁻¹ | kon [14]: 17500 M⁻¹ s⁻¹ | OD 450 nm [12]: 0.469 OD

B13: AB-009357 (antibody, V domains shown)
VH: QLQLQESGPGLVKPSETLSLTCTVSGGSISSSSYYWGWIRQPPGKGLEWIGSIYYSGSTYYNPSLKSRVTISVDTSKNQFSLKLSSVTAADTAVYYCARHPLSSITIFGVVKREYYFDYWGQGTLVTVSS
VL: DIQMTQSPSSVSASVGDRVTITCRASQGISSWLAWYQQKPGKAPKLLIYAASSLQSGVPSRFSGSGSGTDFTLTISSLQPEDFATYYCQQANSFPLLFGGGTKVEIK
OD 450 nm [12]: 0.221 OD | OD 450 nm [13]: 2.77 OD

B14: AB-009335 (antibody, V domains shown)
VH: QVQLQESGPGLVKPSETLSLTCTVSGGSISSHYWSWIRQPPGKGLEWIGYIYYSGSTNYNPSLKSRVTISVDTSKNQFSLKLSSVTAADTAVYYCARVRREWLAAYFYYGMDVWGQGTTVTVSS
VL: B13 VL with V11L, S31N, W32Y, A43V, S53T, F83V, Q90K, A91Y, F94A, L97T
OD 450 nm [12]: 0.4 OD | OD 450 nm [13]: 1.03 OD
